Results taken from patent publication US11040083B2, “Polypeptides comprising vinculin binding sites for the treatment of proliferation and/or adhesion related diseases” (PARIS SCIENCES ET LETTRES—QUARTIER LATIN, priority 2015, dated 2021).

B1: A524: IpaA 524-633, containing only IpaA VBS1 and VBS2 (protein, listed as Shigella flexneri)
chain: KSKDITKSTTEHRINNKLKVTDANIRNYVTETNADTIDKNHAIYEKAKEVSSALSKVLSKIDDTSAELLTDDISDLKNNNDITAENNNIYKAAKDVTTSLSKVLKNINKD
modifications: A524 / IpaA (524-633)
notes: IpaA 524-633, containing only IpaA VBS1 and VBS2
B2: A483: amino acids 483 to 633 of SEQ ID NO: 1 (IpaA), containing IpaA VBS1, VBS2 and VBS3 (protein, listed as Shigella flexneri)
chain: GDTYLTRETIFEASKKVTNSLSNLISLIGTKSGTQERELQEKSKDITKSTTEHRINNKLKVTDANIRNYVTETNADTIDKNHAIYEKAKEVSSALSKVLSKIDDTSAELLTDDISDLKNNNDITAENNNIYKAAKDVTTSLSKVLKNINKD
modifications: A483 / IpaA (483-633)

Tests used:
[1] = system: C2.7 mice myoblasts cells; assay: Immunostaining of focal adhesions in transfected cells; type: cell-based; settings: cells plated for 16 hours
Experimental: C2.7 mice myoblasts cells were seeded at 2.5×10^4 cells in 5 mm rounded cell culture coverslips. Cells were transfected with 3 μg of pcDNA3.1 NT GFP-A483 plasmid, with 6 μL JetPEI transfection reagent (Polyplus) overnight following manufacturer's recommendations. Control and GFP-A483 transfected cells were fixed (3.7% PFA-PBS), permeabilized (0.1% Triton X-100, Sigma-Aldrich) and incubated with a 1/200 monoclonal m11.5 anti-vinculin antibody (ref. V4505, Sigma-Aldrich). Coverslips were washed and incubated with a 1/200 anti-mouse secondary antibody coupled to Alexa 546 (Jackson Research) and 1/200 Phalloidin A633 (Invitrogen), washed and mounted on slides using Dako mounting medium (Invitrogen). Samples were observed using a confocal microscopy with rotary disc (Roper Scientific®). Peripheral and ventral focal adhesion sizes (vinculin) were separated in three different categories (Small/None, Medium and Large) and the size of their focal adherences scored from three independent experiments. The focal adhesion size's distributions between the control and GFP-A483 transfected cells were compared using a Pearson's Chi-squared test.

talin H1-H4 = talin H1-H4 (Homo sapiens, UniProt Q9Y490); assay: Native-PAGE gel shift; type: binding
Experimental: Talin H1-H4 and IpaA peptides/proteins were incubated in binding buffer for 1 hour at 4° C. After incubation, the protein/peptides were mixed in a 2× Native loading buffer (62.5 mM Tris pH 6.8, Glycerol 25%) and separated by Tris-Glycine Native-PAGE electrophoresis. Gels were stained using standard colloidal Coomassie stain.
Talin H1-H4 and IpaA peptides/proteins at different molar ratios were incubated in binding buffer (25 mM Tris pH 7.4, 100 mM NaCl and 1 mM β-Mercaptoethanol) for 1 hour at 4° C. After incubation, the protein/peptides were mixed in a 2× Native loading buffer (62.5 mM Tris pH 6.8, Glycerol 25%) and separated by Tris-Glycine Native-PAGE electrophoresis. The Native PAGE electrophoresis gels were stained using standard colloidal Coomassie stain.

melanocytes = assay: Time lapse cell migration; type: cell-based; settings: 6 movies per sample, preliminary
C2.7 myoblastic cells = assay: Plating on fibronectin-coated PDMS membranes of different stiffness; type: cell-based; settings: substrate stiffness 1.5 kPa and 15 kPa
Experimental: As previously observed, A483 induced the formation of large adhesion structures in C2.7 cells (FIG. 20A). While A483 transfectants induced a spectacular 5.6-fold increase in the number of adherent cells after 60 seconds of incubation, this increase was reduced to 1.3-fold when adhesion was tested after 30 min. These findings were quantified by measuring the resistance to shear stress of cells under flow as a function of the incubation time with the substrate in microfluidic chambers (FIG. 20B). Thus, through its direct binding via IpaA VBS3/TBS or indirect unveiling of binding sites on vinculin “supra-activated”, A483 may “by-pass” mechanosensing normally associated with the initial steps of cell adhesions' formation. While we cannot rule out the possibility that A483 induces an original ex-nihilo adhesion structure, our current results rather argue that it allows the bypassing of actomyosin-dependent mechanosensing steps that would lead to vinculin supra-activation at high actomyosin contraction forces. To further test this, we plated the C2.7 myoblastic cells on various fibronectin-coated PDMS membranes showing different stiffness. As expected, at low substrate stiffness (1.5 kPa), control cells remained spread and isolated, whereas at high substrate stiffness (15 kPa), cells differentiated into myotubes (FIG. 20C).

MEF cells = assay: TIRF microscopy of focal adhesion markers after ROCK inhibitor Y-27632; type: cell-based; settings: Paxillin, Vinculin, VASP; after Rho-kinase inhibitor Y-27632; preliminary
Excerpt: FIG. 21 is a set of images showing that IpaA prevents the disassembly of focal adhesions induced by the relaxation of the actomyosin contraction. MEF cells were transfected with focal adhesion proteins Paxillin-Cherry (PAX), Vinculin-Cherry (VIN) or VASP-Cherry (VASP). CTRL: single transfection; A483: cells were co-transfected with GFP-A483. The intensity of focal adhesion proteins (visualized as white dots) is shown at the indicated time points in seconds after the addition of the ROCK inhibitor Y-27632 by TIRF microscopy. A483 prevents the destabilization of FA markers induced by the ROCK inhibitor observed in control cells.
In preliminary experiments, we have analyzed the role of actomyosin contraction on the recruitment of FA markers linked to the supra-activation of vinculin, by treating cells with the Rho-kinase inhibitor Y-27632. The disappearance of markers from FAs was analyzed following in real-time using total internal reflection (TIRF) microscopy. […] Strikingly, VASP, a marker of mature FAs, was also stabilized by A483, while previous studies had shown that this FA marker was not stabilized by active vinculin, deficient for head-tail intra-molecular interaction.

[2] = system: C2.7 mice myoblasts cells; assay: Cell adhesion kinetics on fibronectin-coated surfaces; type: cell-based
Experimental: C2.7 mice myoblasts cells were seeded at 2.5×10^5 cells in a 10 cm cell culture petri dish (TPP). Cells were transfected with 15 μg of pcDNA3.1 NT GFP-A483 plasmid, with 45 μL JetPEI transfection reagent (Polyplus) overnight following manufacturer's recommendations. Control and transfected cells were detached and washed in a large volume of DMEM/Hepes (ref. 21063-045, Life Technologies) with 0.2% BSA and 50 ng/mL LPA (ref. L7260, Sigma-Aldrich) without FCS. Some 15,000 control/IpaA cells per well were seeded (DMEM/BSA/LPA, no FCS) in 24-well plates added with 5 mm rounded coverslips coated with 25 μg/mL fibronectin and blocked with 2% BSA-PBS 1×. Plates containing cells were centrifuged at 1000 g for 2 minutes, incubated at 37° C. and fixed (3.7% PFA-PBS) at different time points. Coverslips were stained with an anti-vinculin antibody+Phalloidin as described before (Immunostaining) or with a solution containing 1/200 DAPI (1 mg/mL) for number-of-cells adhesion tests. All coverslips were washed and mounted on slides using Dako mounting medium (Invitrogen) and observed using a confocal microscopy with rotary discs (Roper Scientific®).
To confirm this latter result at the scale of a whole cell population, we performed assays where cells, resuspended by trypsinization, were allowed to adhere for define amounts of time on Fn-coated substrates before washing. Then the number of cells that remained attached to the substrate was measured.

Sequence of talin H1-H4 (Q9Y490 482-636): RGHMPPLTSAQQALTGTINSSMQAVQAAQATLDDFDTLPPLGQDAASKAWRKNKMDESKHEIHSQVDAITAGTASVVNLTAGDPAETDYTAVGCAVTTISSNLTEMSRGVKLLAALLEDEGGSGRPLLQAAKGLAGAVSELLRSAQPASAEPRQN

Molecule | focal adhesions (FA) in transfected cells [1] | formation of a complex with talin H1-H4 (talin H1-H4) | effect on cell migration / motility (melanocytes) | myotube formation (C2.7 myoblastic cells) | stabilization of FA markers (MEF cells) | increase in the number of adherent cells ([2]; adhesion tested after 30 min) [fold] | increase in the number of adherent cells ([2]; after 60 seconds of incubation) [fold] | concentration at which the complex with talin H1-H4 / migration shift could be detected (talin H1-H4) [µM]
B1 | not observed | no migration shift could be detected | – | – | – | – | – | –
B2 | – | – | strong effect on cell migration | formed myotubes not only at high, but also at low substrate stiffness | stabilization of all FA markers studied | 1.3 | 5.6 | ≤ 5
